B1: SPSB4 (parent)
chain: LDMDEGTLSFIVDGQYLGVAFRGL
B2: VENTX (parent)
chain: VFQHHQYLSPLERKRLAREMQLSE

Variants of: B1
Experiment: protein stability index of a GFP-peptide fusion (GPS, HEK-293T) (PSI 1-6); higher = more stable
Conditions: c terminus: a fixed tail appended
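Also: lentivirally expressed fusions sorted by FACS into six bins by GFP to DsRed ratio, PSI derived from sequencing read proportions per bin multiplied by bin number.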

Protein stability index of substitutions, site by site:
D4: S 2.52 | V 2.95 | P 1.66 | I 3.21 | C 1.66 | R 2.39 | M 3.51 | H 3.59 | K 2.15 | A 1.71 | L 4.51 | T 2.45 | N 1.93 | Q 2.4 | G 2.73
E5: L 2.51 | H 3.53 | Q 2.7 | I 3.72 | G 1.85 | N 3.71 | R 1.9 | F 2.59 | Y 2.27 | S 2.79 | V 3.95 | W 3.01 | C 3.63 | D 2.77 | M 2.56 | P 1.42
L8: I 2.43 | C 3.35 | T 1.87 | K 1.47 | H 1.55 | R 2.11 | Q 2.12 | P 1.88 | N 1.86 | V 4.24 | A 1.27 | G 1.76 | D 2.21 | F 2.3 | W 3.21 | M 2.72 | E 1.94 | S 1.67
T7: V 1.86 | W 3.12 | M 2.53 | R 1.75 | A 2.34 | K 2.03 | G 2.27 | S 3.54 | H 1.94 | N 1.23 | D 2.11 | F 1.81 | E 1.31 | L 1.99 | I 2.18 | P 1.64 | Q 3.36 | Y 2.04
V12: Q 1.58 | G 1.94 | M 2.67 | F 1.92 | S 1.8 | A 1.96 | Y 2.36 | H 1.62 | R 1.84 | N 1.75 | P 1.7 | D 1.99 | W 3.35 | C 3.24 | E 2.01 | K 1.79 | L 1.26 | T 2.35
S9: T 2.45 | E 2.58 | P 1.74 | H 2.95 | A 3.98 | Y 2.89 | V 1.81 | D 1.87 | Q 2.01 | G 2.99 | L 1.75 | N 2.9 | K 1.99 | C 2.76
Q15: E 1.39 | A 2.87 | D 2.33
I11: V 1.47 | Y 2.58 | K 1.94 | P 2.25 | A 1.72 | D 1.68 | E 1.39 | H 3.77 | T 2.74 | G 2.45 | S 2.63 | Q 2.31 | W 1.56 | N 2.49 | R 2.4 | L 3.07 | C 3.29 | M 2.28 | F 4.16
M3: N 1.52 | D 1.59 | E 1.42 | I 1.33 | F 2.33 | G 2.09 | V 2.67 | A 2.05 | C 2.17 | P 1.74 | R 2.68 | K 2.9 | Q 2.68 | S 1.77 | L 3.27 | H 2.39
G6: R 2.28 | M 2.66 | W 2.88 | C 3.03 | N 3.5 | Q 3.01 | D 1.87 | P 1.72 | S 4.16 | E 1.98 | I 2.38 | H 2.65 | K 2.78 | T 2.32 | A 3.24 | Y 3.87 | F 2.25
F10: H 2.14 | K 2.37 | P 2.3 | A 1.84 | W 2.33 | R 2.21 | D 2.79 | G 1.5 | N 2.27 | E 3.13 | S 2.13 | L 1.76 | C 2.49 | T 2.44 | Q 2 | V 2.38 | M 1.73 | Y 1.89
G14: S 2.17 | W 2.71 | I 3.85 | H 3.15 | N 1.83 | P 3.54 | E 1.91 | Q 1.5 | V 1.95 | L 2.11 | R 2.65 | M 2.88 | D 2.32 | F 2.69 | A 2.58 | T 3.42 | Y 2.38 | K 2.44
D13: N 2.39 | P 1.82 | T 3.32 | K 2.61 | V 2.9 | G 2.8 | F 3.41 | M 2.37 | H 2.94 | Y 3.11 | C 3.49 | L 2.94 | S 2.61 | W 2.55 | I 2.6 | E 2.83 | Q 2.77
L1: E 1.66 | F 2.48 | P 1.96 | S 1.71 | Q 1.53 | H 2.12 | N 1.28 | K 1.27 | Y 1.32 | T 1.86 | W 2.76 | C 3.04 | I 2.59 | V 2.51 | M 2.75 | A 1.83 | R 2.09 | G 1.65 | D 1.31
D2: E 2.68 | P 2.26 | L 2.87 | R 2.74 | Q 1.65 | A 2.04 | I 2.56 | H 2.12 | Y 2.74 | V 2.35 | S 2.1 | W 2.23 | M 2.62 | K 1.64 | T 3.9

Variants of: B2
Experiment: as above
Conditions: c terminus: a fixed tail appended

Protein stability index, by site and new letter:
Y7: G 2.34 | V 3.48 | K 2.71 | F 2.99
P10: H 2.73 | F 1.91 | N 2.82 | K 2.52 | C 2.32 | S 2.89
Q3: D 4.04 | N 3.05 | L 1.29 | Y 2.56 | S 3.81
H5: W 1.96 | Q 3.01 | A 2.5
S9: H 2.38 | Q 3.25 | N 2.59 | L 2.22
R13: T 2.32 | N 3.31 | H 2.07
L11: N 3.2 | A 3 | H 2.77 | G 1.95 | E 3.41
R18: W 2.21 | C 2.58 | A 2.28 | G 2.68 | P 2.13 | Y 2
Q6: W 2.17 | K 2.69 | P 2.09 | Y 2.09 | R 2.47 | H 3.06 | E 3.66
Q21: V 2.44 | I 2.32 | Y 3.06
L8: Y 2.32 | Q 2.89
K14: G 2.39 | R 2.67 | M 3.11 | N 2.83 | L 2.19 | W 1.81 | V 2.63
E19: H 2.17 | K 1.94 | M 1.78 | A 2.08
R15: H 2.54 | T 2.97
A17: G 2.69 | V 2.14 | L 2.79 | I 2.36 | F 2.5 | P 2.98
H4: K 2.5 | M 2.31 | G 3.26
F2: L 3.22 | M 3.1 | Q 4 | D 4.44 | H 3.38 | I 3.12
L22: H 2.93 | S 2.56 | C 2.84
L16: C 2.62 | Y 2.31
V1: H 2.34 | S 3.1 | D 2.83 | E 2.49
E24: N 2.37 | C 1.82 | P 2.1 | I 2.23
M20: S 2.62 | W 1.67 | L 2.75 | I 2.39
